{
  "source": "paper PMC3985463",
  "binders": {"B1": {"name": "ESS3b loop (ssRNA)", "RNA": "GAUUAG"}},
  "biological_target": "His6-UP1 C43S/C175S (hnRNP A1 UP1 domain; ITC) (Homo sapiens, UniProt P09651 1-196, C43S;C175S)",
  "sequence (P09651 1-196 C43S/C175S)": "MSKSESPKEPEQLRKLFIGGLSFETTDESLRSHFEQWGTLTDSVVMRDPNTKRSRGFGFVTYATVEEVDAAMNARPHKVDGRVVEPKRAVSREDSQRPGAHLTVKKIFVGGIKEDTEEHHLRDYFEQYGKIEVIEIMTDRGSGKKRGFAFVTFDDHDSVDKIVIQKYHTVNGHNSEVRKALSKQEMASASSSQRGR",
  "test": "ITC",
  "data": [
    {"binder": "B1", "values": [
      {"measurement": "Kd", "value": "4.17 ± 0.421", "unit": "µM"}
    ]}
  ]
}
